The experiment deals with SUMO fusion of the glycophorin A TM domain. The experiment is described as follows: SEC.

Among the data in publication doi:10.1101/2025.06.25.661420 are stoichiometry N values, retold here.

In general, stoichiometry N refers to the number of molecules, sites or subunits per partner or assembly.

Consider “SUMO fusion of the glycophorin A TM domain (domain or fragment)”, for which the stoichiometry N came out at 2.
